Reference: patent US20230374132A1 (Innovent, published 2023)

Columns and labels:
[1] = biological target: T1, human CD3 E&D complex protein (Sino Biological Inc., CT026H0323H) (human, UniProt P07766 23-126; P04234 22-105); assay: BLI, antibody on sensor
T1 construct: bought heterodimer; also called human CD3 protein (CT026H0323H)

[2] = biological target: T2, human CD3E&G complex (Sino Biological Inc., CT041-H0305H) (human, UniProt P07766 23-126; P09693 23-116); assay: BLI, antibody on sensor
T2 construct: bought heterodimer; also called human CD3E&G antigen
T2 sequence (P07766 23-126, chain 1 of 2): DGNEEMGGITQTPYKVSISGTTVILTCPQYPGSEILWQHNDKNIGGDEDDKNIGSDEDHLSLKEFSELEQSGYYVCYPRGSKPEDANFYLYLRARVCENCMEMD
T2 sequence (P09693 23-116, chain 2 of 2): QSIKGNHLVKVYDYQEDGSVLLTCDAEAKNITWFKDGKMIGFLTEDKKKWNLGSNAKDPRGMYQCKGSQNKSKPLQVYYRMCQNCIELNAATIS

T1 sequence (P07766 23-126, chain 1 of 2): as the sequence (P07766 23-126, chain 1 of 2) above
T1 sequence (P04234 22-105, chain 2 of 2): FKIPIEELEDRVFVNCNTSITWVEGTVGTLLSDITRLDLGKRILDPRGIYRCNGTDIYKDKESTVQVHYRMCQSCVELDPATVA

Row | Binder | Kd [1] [nM] | koff [1] [s⁻¹] | kon [1] [M⁻¹ s⁻¹] | Kd [2] [nM] | koff [2] [s⁻¹] | kon [2] [M⁻¹ s⁻¹]
1 | hzsp34.81 (antibody, human IgG1, lambda, L234A L235A, V domains shown, CDR mutant of hzsp34.24; IgG1 L234A L235A, lambda) VH: EVQLVESGGGLVQPGGSLKLSCAASGFTFNTYAMNWVRQASGKGLEWVGRISSKYNNYATYYADSVKDRFTISRDDSKSTLYLQMNSLKTEDTAVYYCARHGNFGQSYVSWFAYWGQGTTVTVSS VL: QAVVTQEPSLTVSPGGTVTLTCRSSTGAVTTSNYANWVQQKPGQAPRGLIGGTNKRAPGVPARFSGSLLGDKAALTLLGAQPEDEAEYYCALWYSNLWVFGQGTKLTVLG | 7.69 | 0.00143 | 186000 | 11.1 | 0.00157 | 142000
2 | hzsp34.89 (antibody, human IgG1, lambda, L234A L235A, V domains shown, CDR mutant of hzsp34.24; IgG1 L234A L235A, lambda) VH: EVQLVESGGGLVQPGGSLKLSCAASGFTFNTYAMNWVRQASGKGLEWVGRIRSKYNNYATYYADSVKDRFTISRDDSKSTLYLQMNSLKTEDTAVYYCARHGNAGQSYVSWFAYWGQGTTVTVSS VL: QAVVTQEPSLTVSPGGTVTLTCRSSTGAVTTSNYANWVQQKPGQAPRGLIGGTNKRAPGVPARFSGSLLGDKAALTLLGAQPEDEAEYYCALWYSNLWVFGQGTKLTVLG | 6.62 | 0.00094 | 142000 | 13.8 | 0.00282 | 205000
3 | hzsp34.80 (antibody, human IgG1, lambda, L234A L235A, V domains shown, CDR mutant of hzsp34.24; IgG1 L234A L235A, lambda) VH: EVQLVESGGGLVQPGGSLKLSCAASGFTFNTAAMNWVRQASGKGLEWVGRIRSKYNNYATYYADSVKDRFTISRDDSKSTLYLQMNSLKTEDTAVYYCARHGNFGQSYVSWFAYWGQGTTVTVSS VL: QAVVTQEPSLTVSPGGTVTLTCRSSTGAVTTSNYANWVQQKPGQAPRGLIGGTNKRAPGVPARFSGSLLGDKAALTLLGAQPEDEAEYYCALWYSNLWVFGQGTKLTVLG | 6.55 | 0.00147 | 225000 | 15.4 | 0.00213 | 138000
4 | hzsp34.88 (antibody, human IgG1, lambda, L234A L235A, V domains shown, CDR mutant of hzsp34.24; IgG1 L234A L235A, lambda) VH: EVQLVESGGGLVQPGGSLKLSCAASGFTFNTYAMNWVRQASGKGLEWVGRIRSKYNNYATYYADSVKDRFTISRDDSKSTLYLQMNSLKTEDTAVYYCARHGGFGQSYVSWFAYWGQGTTVTVSS VL: QAVVTQEPSLTVSPGGTVTLTCRSSTGAVTTSNYANWVQQKPGQAPRGLIGGTNKRAPGVPARFSGSLLGDKAALTLLGAQPEDEAEYYCALWYSNLWVFGQGTKLTVLG | 4.55 | 0.000797 | 175000 | 15.8 | 0.00205 | 130000
5 | hzsp34.82 (antibody, human IgG1, lambda, L234A L235A, V domains shown, CDR mutant of hzsp34.24; IgG1 L234A L235A, lambda) VH: EVQLVESGGGLVQPGGSLKLSCAASGFTFNTYAMNWVRQASGKGLEWVGRIRLKYNNYATYYADSVKDRFTISRDDSKSTLYLQMNSLKTEDTAVYYCARHGNFGQSYVSWFAYWGQGTTVTVSS VL: QAVVTQEPSLTVSPGGTVTLTCRSSTGAVTTSNYANWVQQKPGQAPRGLIGGTNKRAPGVPARFSGSLLGDKAALTLLGAQPEDEAEYYCALWYSNLWVFGQGTKLTVLG | 10.3 | 0.00168 | 163000 | 12 | 0.00191 | 159000

These reach a lower Kd [1]. Values come first.

Row | Kd [1] [nM] | koff [1] [s⁻¹] | kon [1] [M⁻¹ s⁻¹] | Kd [2] [nM] | koff [2] [s⁻¹] | kon [2] [M⁻¹ s⁻¹] | Binder
6 | 1.35 | 0.0003 | 223000 | 8.97 | 0.00224 | 250000 | hzsp34.78 (antibody, human IgG1, lambda, L234A L235A, V domains shown, CDR mutant of hzsp34.24; IgG1 L234A L235A, lambda) VH: EVQLVESGGGLVQPGGSLKLSCAASGFTFGTYAMNWVRQASGKGLEWVGRIRSKYNNYATYYADSVKDRFTISRDDSKSTLYLQMNSLKTEDTAVYYCARHGNFGQSYVSWFAYWGQGTTVTVSS VL: QAVVTQEPSLTVSPGGTVTLTCRSSTGAVTTSNYANWVQQKPGQAPRGLIGGTNKRAPGVPARFSGSLLGDKAALTLLGAQPEDEAEYYCALWYSNLWVFGQGTKLTVLG
7 | 0.507 | 0.000118 | 233000 | 6.36 | 0.00154 | 242000 | hzsp34.79 (antibody, human IgG1, lambda, L234A L235A, V domains shown, CDR mutant of hzsp34.24; IgG1 L234A L235A, lambda) VH: EVQLVESGGGLVQPGGSLKLSCAASGFTFNGYAMNWVRQASGKGLEWVGRIRSKYNNYATYYADSVKDRFTISRDDSKSTLYLQMNSLKTEDTAVYYCARHGNFGQSYVSWFAYWGQGTTVTVSS VL: QAVVTQEPSLTVSPGGTVTLTCRSSTGAVTTSNYANWVQQKPGQAPRGLIGGTNKRAPGVPARFSGSLLGDKAALTLLGAQPEDEAEYYCALWYSNLWVFGQGTKLTVLG
8 | 1.39 | 0.000354 | 255000 | 6.61 | 0.00144 | 219000 | hzsp34.86 (antibody, human IgG1, lambda, L234A L235A, V domains shown, CDR mutant of hzsp34.24; IgG1 L234A L235A, lambda) VH: EVQLVESGGGLVQPGGSLKLSCAASGFTFNTYAMNWVRQASGKGLEWVGRIRSKYNNYATYYADSVKDRFTISRDDSKSTLYLQMNSLKTEDTAVYYCARAGNFGQSYVSWFAYWGQGTTVTVSS VL: QAVVTQEPSLTVSPGGTVTLTCRSSTGAVTTSNYANWVQQKPGQAPRGLIGGTNKRAPGVPARFSGSLLGDKAALTLLGAQPEDEAEYYCALWYSNLWVFGQGTKLTVLG
9 | 0.88 | 0.000152 | 173000 | 6.06 | 0.000997 | 165000 | hzsp34.87 (antibody, human IgG1, lambda, L234A L235A, V domains shown, CDR mutant of hzsp34.24; IgG1 L234A L235A, lambda) VH: EVQLVESGGGLVQPGGSLKLSCAASGFTFNTYAMNWVRQASGKGLEWVGRIRSKYNNYATYYADSVKDRFTISRDDSKSTLYLQMNSLKTEDTAVYYCARHYNFGQSYVSWFAYWGQGTTVTVSS VL: QAVVTQEPSLTVSPGGTVTLTCRSSTGAVTTSNYANWVQQKPGQAPRGLIGGTNKRAPGVPARFSGSLLGDKAALTLLGAQPEDEAEYYCALWYSNLWVFGQGTKLTVLG
10 | 0.928 | 0.0002 | 216000 | 3.6 | 0.000791 | 220000 | hzsp34.83 (antibody, human IgG1, lambda, L234A L235A, V domains shown, CDR mutant of hzsp34.24; IgG1 L234A L235A, lambda) VH: EVQLVESGGGLVQPGGSLKLSCAASGFTFNTYAMNWVRQASGKGLEWVGRIRSKANNYATYYADSVKDRFTISRDDSKSTLYLQMNSLKTEDTAVYYCARHGNFGQSYVSWFAYWGQGTTVTVSS VL: QAVVTQEPSLTVSPGGTVTLTCRSSTGAVTTSNYANWVQQKPGQAPRGLIGGTNKRAPGVPARFSGSLLGDKAALTLLGAQPEDEAEYYCALWYSNLWVFGQGTKLTVLG
11 | 0.812 | 0.0002 | 246000 | 4.89 | 0.00114 | 233000 | hzsp34.84 (antibody, human IgG1, lambda, L234A L235A, V domains shown, CDR mutant of hzsp34.24; IgG1 L234A L235A, lambda) VH: EVQLVESGGGLVQPGGSLKLSCAASGFTFNTYAMNWVRQASGKGLEWVGRIRSKYGNYATYYADSVKDRFTISRDDSKSTLYLQMNSLKTEDTAVYYCARHGNFGQSYVSWFAYWGQGTTVTVSS VL: QAVVTQEPSLTVSPGGTVTLTCRSSTGAVTTSNYANWVQQKPGQAPRGLIGGTNKRAPGVPARFSGSLLGDKAALTLLGAQPEDEAEYYCALWYSNLWVFGQGTKLTVLG
12 | 1.32 | 0.000304 | 230000 | 8.08 | 0.00201 | 249000 | hzsp34.85 (antibody, human IgG1, lambda, L234A L235A, V domains shown, CDR mutant of hzsp34.24; IgG1 L234A L235A, lambda) VH: EVQLVESGGGLVQPGGSLKLSCAASGFTFNTYAMNWVRQASGKGLEWVGRIRSKYNGYATYYADSVKDRFTISRDDSKSTLYLQMNSLKTEDTAVYYCARHGNFGQSYVSWFAYWGQGTTVTVSS VL: QAVVTQEPSLTVSPGGTVTLTCRSSTGAVTTSNYANWVQQKPGQAPRGLIGGTNKRAPGVPARFSGSLLGDKAALTLLGAQPEDEAEYYCALWYSNLWVFGQGTKLTVLG
